Measured values reported in PMC5499601 (Nucleic Acids Research, 2017).
Changes are numbered by the printed parent chain.

How the values were obtained:
Assay in all cases: EMSA
BsSpo0J H57E = biological target: T1, BsSpo0J H57E (UniProt P26497 1-282, H57E)
T1 sequence: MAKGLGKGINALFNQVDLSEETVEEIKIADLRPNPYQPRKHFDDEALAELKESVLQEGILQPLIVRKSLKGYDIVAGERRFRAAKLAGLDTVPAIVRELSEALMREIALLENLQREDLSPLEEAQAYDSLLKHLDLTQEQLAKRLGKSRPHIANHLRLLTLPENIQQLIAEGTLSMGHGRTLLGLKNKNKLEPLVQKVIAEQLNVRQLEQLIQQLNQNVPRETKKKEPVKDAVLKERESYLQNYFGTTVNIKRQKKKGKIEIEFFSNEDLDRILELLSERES

BsSpo0J Q61A = biological target: T2, BsSpo0J Q61A (UniProt P26497 1-282, Q61A)
T2 sequence: T1 sequence with E57H, Q61A

BsSpo0J E52R = biological target: T3, BsSpo0J E52R (UniProt P26497 1-282, E52R)
T3 sequence: T1 sequence with E52R, E57H

BsSpo0J M104A = biological target: T4, BsSpo0J M104A (UniProt P26497 1-282, M104A)
T4 sequence: T1 sequence with E57H, M104A

BsSpo0J Q140R = biological target: T5, BsSpo0J Q140R (UniProt P26497 1-282, Q140R)
T5 sequence: T1 sequence with E57H, Q140R

BsSpo0J R79A = biological target: T6, BsSpo0J R79A (UniProt P26497 1-282, R79A)
T6 sequence: T1 sequence with E57H, R79A

BsSpo0J R82A = biological target: T7, BsSpo0J R82A (UniProt P26497 1-282, R82A)
T7 sequence: T1 sequence with E57H, R82A

BsSpo0J R39A = biological target: T8, BsSpo0J R39A (UniProt P26497 1-282, R39A)
T8 sequence: T1 sequence with R39A, E57H

BsSpo0J R105E = biological target: T9, BsSpo0J R105E (UniProt P26497 1-282, R105E)
T9 sequence: T1 sequence with E57H, R105E

Measured: binding result

B1: 24-bp parS (dsDNA)
DNA 1: AGAATGTTCCACGTGAAACAAAGA
DNA 2: TCTTTGTTTCACGTGGAACATTCT
binds: all assays above
